Experiments:
[1] = target: T1, recombinant human FLT3 protein (human, UniProt P36888 27-541); test: ELISA with recombinant human FLT3 coated to the plate (results of FIG. 13 summarized)
T1 construct: also called recombinant FLT3 protein; human recombinant FLT3 protein (10445-H08H, Sino Biological)
T1 sequence: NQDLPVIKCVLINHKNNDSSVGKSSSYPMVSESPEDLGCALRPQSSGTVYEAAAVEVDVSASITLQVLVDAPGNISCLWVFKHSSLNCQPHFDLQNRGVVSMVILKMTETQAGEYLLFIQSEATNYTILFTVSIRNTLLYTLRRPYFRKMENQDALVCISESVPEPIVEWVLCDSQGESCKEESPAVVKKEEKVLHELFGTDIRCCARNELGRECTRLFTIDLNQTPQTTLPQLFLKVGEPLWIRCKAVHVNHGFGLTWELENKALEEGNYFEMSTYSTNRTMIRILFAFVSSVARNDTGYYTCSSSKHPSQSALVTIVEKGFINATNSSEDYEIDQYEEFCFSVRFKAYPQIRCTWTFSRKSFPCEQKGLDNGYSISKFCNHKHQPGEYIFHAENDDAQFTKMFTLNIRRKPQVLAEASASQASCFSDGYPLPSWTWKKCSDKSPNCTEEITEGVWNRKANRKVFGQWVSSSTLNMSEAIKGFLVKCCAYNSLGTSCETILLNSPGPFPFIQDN
Method: Maxisorp plates were coated with human recombinant FLT3 protein (10445-H08H, Sino Biological). […] For detection, Attophos Fluorescent Substrate System (S1000, Promega) was applied. The fluorescence was read with excitation of 405 nm and emission at 500-550 nm. The calculation of the dissociation constant KD was performed using GraphPad Prism version 9.4.0.
The 12 clones were subsequently analysed in ELISA assays (FIG. 13). Therefore, recombinant human FLT3 was coated on plates and incubated with the antibody candidates. […] Mean±s.d. of n=3 biological replicates.

[2] = target: T2, human CD64 (high affinity Fc receptor, FCGR1) on cells (human, UniProt P12314 16-374); test: flow cytometry, cell surface binding to Ba/F3-pMIY cells expressing CD64, specific MFI, mean ± s.d. of n=3
T2 construct: whole, on cells; also called hCD64; human FCGR1

VEGFR-2 on Ba/F3 cells = target: T3, VEGFR-2 on Ba/F3 cells (UniProt P35968 20-1356, limits assumed); test: flow cytometry, cell surface binding to Ba/F3 pMIY cells expressing VEGFR, MFI ratio normalized to IgG1, mean ± s.d. of n=3
T3 construct: whole, on cells

CSF1R on Ba/F3 cells = target: T4, CSF1R on Ba/F3 cells (UniProt P07333 20-972, limits assumed); test: flow cytometry, cell surface binding to Ba/F3 pMIY cells expressing CSF-1R, MFI ratio normalized to IgG1, mean ± s.d. of n=3
T4 construct: whole, on cells

PDGFRα on Ba/F3 cells = target: T5, PDGFRα on Ba/F3 cells (UniProt P16234 24-1089, limits assumed); test: flow cytometry, cell surface binding to Ba/F3 pMIY cells expressing PDGFRα, MFI ratio normalized to IgG1, mean ± s.d. of n=3
T5 construct: whole, on cells

[3] = target: T6, rat FLT3 expressed on Ba/F3 cells (rat, UniProt A0A0G2JW59 27-982); test: flow cytometry, cell surface binding to Ba/F3 pMIY cells expressing rFLT3wt, MFI ratio normalized to IgG1, mean ± s.d. of n=3
T6 construct: whole, on cells
T6 sequence: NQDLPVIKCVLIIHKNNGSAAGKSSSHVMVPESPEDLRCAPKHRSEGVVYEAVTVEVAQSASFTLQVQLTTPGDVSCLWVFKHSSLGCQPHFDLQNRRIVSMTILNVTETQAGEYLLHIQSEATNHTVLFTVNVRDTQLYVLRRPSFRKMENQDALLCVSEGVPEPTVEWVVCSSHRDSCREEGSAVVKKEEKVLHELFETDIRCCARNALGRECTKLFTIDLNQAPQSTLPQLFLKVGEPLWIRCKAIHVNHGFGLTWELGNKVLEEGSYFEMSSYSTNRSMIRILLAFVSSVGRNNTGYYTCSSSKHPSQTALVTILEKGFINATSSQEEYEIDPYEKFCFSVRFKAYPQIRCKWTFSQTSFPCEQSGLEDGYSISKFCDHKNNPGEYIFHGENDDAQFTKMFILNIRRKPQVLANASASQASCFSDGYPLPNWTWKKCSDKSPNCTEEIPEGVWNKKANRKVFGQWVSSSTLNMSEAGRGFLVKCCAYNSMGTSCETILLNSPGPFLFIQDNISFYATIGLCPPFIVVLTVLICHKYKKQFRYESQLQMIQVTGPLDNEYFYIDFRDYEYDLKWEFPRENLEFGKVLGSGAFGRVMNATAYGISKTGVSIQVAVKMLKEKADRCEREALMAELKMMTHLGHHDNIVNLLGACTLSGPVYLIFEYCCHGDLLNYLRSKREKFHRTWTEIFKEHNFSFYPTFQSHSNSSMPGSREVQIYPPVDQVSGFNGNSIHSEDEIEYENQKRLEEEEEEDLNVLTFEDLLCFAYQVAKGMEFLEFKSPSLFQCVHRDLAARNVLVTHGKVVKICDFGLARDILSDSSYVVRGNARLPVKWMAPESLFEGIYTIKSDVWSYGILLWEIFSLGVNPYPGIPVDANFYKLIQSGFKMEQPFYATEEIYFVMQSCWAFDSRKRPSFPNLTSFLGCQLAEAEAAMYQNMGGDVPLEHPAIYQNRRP

T2 sequence (P12314 16-374): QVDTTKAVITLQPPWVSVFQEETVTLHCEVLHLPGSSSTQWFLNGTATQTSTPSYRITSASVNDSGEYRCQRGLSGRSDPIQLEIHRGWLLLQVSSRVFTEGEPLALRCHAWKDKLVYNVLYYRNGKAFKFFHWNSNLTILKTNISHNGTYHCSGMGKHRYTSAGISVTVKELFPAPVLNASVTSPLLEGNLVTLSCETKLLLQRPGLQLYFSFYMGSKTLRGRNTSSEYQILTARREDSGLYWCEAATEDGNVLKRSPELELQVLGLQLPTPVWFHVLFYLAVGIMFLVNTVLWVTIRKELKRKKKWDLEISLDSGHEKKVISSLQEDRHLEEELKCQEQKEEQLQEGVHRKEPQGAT
T5 sequence (P16234 24-1089 limits assumed): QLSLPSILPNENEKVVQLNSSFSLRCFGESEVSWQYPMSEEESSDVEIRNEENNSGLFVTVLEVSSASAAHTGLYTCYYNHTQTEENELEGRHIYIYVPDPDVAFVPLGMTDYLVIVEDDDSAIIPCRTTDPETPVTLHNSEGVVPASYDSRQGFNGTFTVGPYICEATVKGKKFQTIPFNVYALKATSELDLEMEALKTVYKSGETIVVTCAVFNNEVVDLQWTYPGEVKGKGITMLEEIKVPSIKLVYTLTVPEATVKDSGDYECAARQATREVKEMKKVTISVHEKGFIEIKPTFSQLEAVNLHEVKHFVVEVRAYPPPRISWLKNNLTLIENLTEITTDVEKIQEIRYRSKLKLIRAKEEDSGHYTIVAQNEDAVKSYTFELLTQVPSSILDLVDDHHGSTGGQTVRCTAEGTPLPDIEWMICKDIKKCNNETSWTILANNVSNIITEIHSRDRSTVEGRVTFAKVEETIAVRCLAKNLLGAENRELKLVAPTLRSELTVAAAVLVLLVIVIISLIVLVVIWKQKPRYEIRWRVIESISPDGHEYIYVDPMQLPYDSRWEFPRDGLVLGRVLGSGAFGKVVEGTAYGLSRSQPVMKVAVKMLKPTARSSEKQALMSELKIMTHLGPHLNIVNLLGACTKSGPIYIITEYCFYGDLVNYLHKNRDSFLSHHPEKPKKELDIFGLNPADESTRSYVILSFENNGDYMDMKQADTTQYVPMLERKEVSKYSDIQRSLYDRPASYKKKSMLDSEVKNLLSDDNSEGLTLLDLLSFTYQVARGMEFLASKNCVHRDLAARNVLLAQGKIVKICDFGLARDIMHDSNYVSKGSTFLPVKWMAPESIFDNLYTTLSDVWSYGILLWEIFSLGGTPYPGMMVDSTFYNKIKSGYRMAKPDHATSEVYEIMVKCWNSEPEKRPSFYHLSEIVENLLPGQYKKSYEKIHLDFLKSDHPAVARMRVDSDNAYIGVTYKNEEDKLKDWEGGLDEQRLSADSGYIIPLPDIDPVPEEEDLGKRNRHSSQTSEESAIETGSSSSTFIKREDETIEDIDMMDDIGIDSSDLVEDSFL
T3 sequence (P35968 20-1356 limits assumed): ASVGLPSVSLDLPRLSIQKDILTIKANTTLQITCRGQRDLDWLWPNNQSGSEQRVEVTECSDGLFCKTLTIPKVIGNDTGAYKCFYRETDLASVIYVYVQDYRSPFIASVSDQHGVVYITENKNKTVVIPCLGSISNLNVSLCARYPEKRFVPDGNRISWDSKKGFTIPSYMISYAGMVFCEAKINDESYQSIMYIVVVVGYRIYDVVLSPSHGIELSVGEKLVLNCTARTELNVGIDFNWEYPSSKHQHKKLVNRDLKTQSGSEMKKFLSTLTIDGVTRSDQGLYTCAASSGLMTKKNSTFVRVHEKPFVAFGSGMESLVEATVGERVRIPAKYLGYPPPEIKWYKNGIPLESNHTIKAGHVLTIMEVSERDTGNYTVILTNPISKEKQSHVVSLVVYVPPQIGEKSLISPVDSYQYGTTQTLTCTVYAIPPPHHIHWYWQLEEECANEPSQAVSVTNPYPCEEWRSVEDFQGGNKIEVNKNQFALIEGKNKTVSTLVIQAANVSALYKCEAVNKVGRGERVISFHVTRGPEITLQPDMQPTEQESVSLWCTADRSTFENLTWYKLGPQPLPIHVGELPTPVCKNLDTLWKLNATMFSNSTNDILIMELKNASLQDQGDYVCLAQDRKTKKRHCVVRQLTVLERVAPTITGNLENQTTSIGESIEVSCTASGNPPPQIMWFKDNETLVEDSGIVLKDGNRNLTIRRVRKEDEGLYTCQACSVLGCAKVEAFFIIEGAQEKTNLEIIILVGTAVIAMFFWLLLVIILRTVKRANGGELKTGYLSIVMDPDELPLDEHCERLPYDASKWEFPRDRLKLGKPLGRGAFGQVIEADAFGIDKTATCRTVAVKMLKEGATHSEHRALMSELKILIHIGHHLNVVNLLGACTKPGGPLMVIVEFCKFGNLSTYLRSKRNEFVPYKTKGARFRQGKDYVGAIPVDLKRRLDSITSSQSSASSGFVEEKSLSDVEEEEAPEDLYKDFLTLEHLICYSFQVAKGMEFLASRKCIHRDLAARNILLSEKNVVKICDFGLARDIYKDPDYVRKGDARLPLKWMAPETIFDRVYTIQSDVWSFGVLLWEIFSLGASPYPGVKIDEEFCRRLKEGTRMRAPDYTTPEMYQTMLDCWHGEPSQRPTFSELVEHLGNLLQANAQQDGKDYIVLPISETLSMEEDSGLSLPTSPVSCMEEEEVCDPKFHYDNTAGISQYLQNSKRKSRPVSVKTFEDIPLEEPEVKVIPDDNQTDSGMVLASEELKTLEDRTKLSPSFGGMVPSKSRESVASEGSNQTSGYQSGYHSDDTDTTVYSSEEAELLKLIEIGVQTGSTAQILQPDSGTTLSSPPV
T4 sequence (P07333 20-972 limits assumed): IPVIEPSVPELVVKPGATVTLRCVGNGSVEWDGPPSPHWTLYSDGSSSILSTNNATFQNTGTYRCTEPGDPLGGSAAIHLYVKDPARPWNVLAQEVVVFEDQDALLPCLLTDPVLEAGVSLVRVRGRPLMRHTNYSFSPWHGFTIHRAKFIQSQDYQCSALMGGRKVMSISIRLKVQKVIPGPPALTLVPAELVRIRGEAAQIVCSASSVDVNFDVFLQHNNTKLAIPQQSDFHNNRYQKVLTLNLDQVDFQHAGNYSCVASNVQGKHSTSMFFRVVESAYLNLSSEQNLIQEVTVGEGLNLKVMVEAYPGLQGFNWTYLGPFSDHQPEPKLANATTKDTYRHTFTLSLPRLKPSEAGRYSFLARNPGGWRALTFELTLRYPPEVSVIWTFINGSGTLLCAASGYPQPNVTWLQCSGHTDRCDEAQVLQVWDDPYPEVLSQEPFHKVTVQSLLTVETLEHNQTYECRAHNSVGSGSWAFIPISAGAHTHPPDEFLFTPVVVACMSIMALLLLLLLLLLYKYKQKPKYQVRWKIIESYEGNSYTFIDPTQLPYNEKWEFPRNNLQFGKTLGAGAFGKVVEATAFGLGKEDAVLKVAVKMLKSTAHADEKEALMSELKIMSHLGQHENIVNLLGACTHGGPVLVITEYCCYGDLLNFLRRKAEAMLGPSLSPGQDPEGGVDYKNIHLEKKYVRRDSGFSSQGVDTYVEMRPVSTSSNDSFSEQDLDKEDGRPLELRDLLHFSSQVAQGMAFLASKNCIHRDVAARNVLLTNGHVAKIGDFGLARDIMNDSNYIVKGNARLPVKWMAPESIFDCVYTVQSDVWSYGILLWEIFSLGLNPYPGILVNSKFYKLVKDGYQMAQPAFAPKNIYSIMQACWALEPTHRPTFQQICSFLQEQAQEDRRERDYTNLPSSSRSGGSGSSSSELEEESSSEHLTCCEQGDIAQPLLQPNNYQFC

B1: Humanized clone 3 of 20D9 (VH3 + VK1) (antibody, human IgG1, kappa)
heavy: not shown
light: DIQMTQSPSVLSASVGDRVTINCRASQNINKELNWYQQKLGEAPKLLIYNTNNLQSGVPSRFSGSGSGTDYTLTISSLQPEDVATYFCFQHKSWPLTFGSGTKLEIKRTVAAPSVFIFPPSDEQLKSGTASVVCLLNNFYPREAKVQWKVDNALQSGNSQESVTEQDSKDSTYSLSSTLTLSKADYEKHKVYACEVTHQGLSSPVTKSFNRGEC
notes: also called candidate #3; #3 mab
B1 was tested, and the Kd [1] was 0.0113 µg/mL, the binding result [2] was “binds” and the binding result (VEGFR-2 on Ba/F3 cells) was “no binding”. B1: no binding (CSF1R on Ba/F3 cells); no binding (PDGFRα on Ba/F3 cells); no binding [3].

Reference: patent US20250049939A1 (TUBULIS, published 2025)
